Measurements as given in the supplement of paper PMC12636428.

Test system: Saccharomyces cerevisiae
Assay: transcriptional activation domain activity (GFP:mCherry ratio, weighted mean of sorted bins, harmonized to initial dataset scale) (arbitrary fluorescence ratio units); higher = stronger transcriptional activation
Details: beta-estradiol 1 µM; induction time 4 h
Summary of the method: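 Sorting into 8 bins by GFP:mCherry ratio followed a 4-hour hold at 30 °C after cultures were diluted 1:5 into SC with 1 uM beta-estradiol. The yeast diploids carried a GFP reporter and had barcoded protein tiles, fused to an estradiol-inducible synthetic transcription factor, integrated at URA3. Barcodes were then sequenced, and tiles with under 50 reads were removed. Activation activity is the read-weighted mean of bin median fluorescence, averaged across barcodes and linearly mapped onto the initial dataset scale.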

Row | Sequence | transcriptional activation domain activity
1 | MTCCLNLFCLLLINLIFFVCACCLLVFSLLAIQNKLPECILLPINIFKMLTIL | 52900
2 | NTWLLFRQVVDVILLNDFVAYCMFAFSCFRVPEGLSLAVHIMRWVAGIALIAF | 56200
3 | KWLGECLNAAIAVFLYIYFLLHVGLLHLSHFFFFFFDLFSPVYTLSLQMVLYL | 53800
4 | STQCSCEDESCPCVNCLIHRSEEELNSYIQQSGVPLTNIGEAQITDKMMDYLD | 56900
5 | SFSLLALSFFFLHVLFSLIIAPCVWFWFFSWLWFWLDLSSPRTYCIHIWLIHP | 39300
6 | LTQRNTCITGGPFWFFFFFFCLLVFSLPPSLKLFPTLPRITCLFSHVFFFFFP | 15700
7 | ILSPTLFLLFSSSPLPLLFYPHFPFLVLTSYFLLLLYSSVSLFIAFLHSLFLI | 41300
8 | MAGQNNPFVGAVFSGLFLGYMILAAALSIFFLLYFNRVFASIVSWGIRAWTWR | 31200
9 | EEPVPKKRGRGRPPKNPAAKAKAAAAAAAAKKAERLPKVRVHKAHTPLRENIH | < 6570
10 | RAYGCEAAFITVLQEKINHYTRCARVFYNLNRWVAVRLELLSSLFTTALAAYL | 63400
11 | MDSRPAKRPRKTETEDTLDDTDKKPHKKPPLSCAECRRLKLKVATLAASVIVY | 69000
12 | EAARKETDAEGVRKTKVKKSRKRKAPEDGLEADEEGAARRTARARKTPAEAEA | 28700
13 | GGGTAARSAGSSSREEERGQRRHGRGERGREGADAGRKGGREGTREALAGKGR | 30800
14 | VALATWVIVIAVLLPTIFLIGFIESYCWFRRMMLGRSALRLGTICWCVMSLWF | 65100
15 | DGKTFDQLLRLKRLLVMHKGNLQSMWCVALMLELWHTKWTELSRLIQQHWGTG | 74200
16 | MVVIVLQIGVSLYKLLVLLLWYVEWILYLFLLVEDRLLYQNMLLFEAPTLVYT | 63300
17 | APSDTNGNGKRKQTKSRNGCTTCKAKRLKCDETKPHCKQCARRSVQCGGYRKE | 39400
18 | DVDEAGEARGDSSSLCLSFLSLLLFFLFFLFFLLFRFLHLLHFFLFLLVFHFF | 47600
19 | DEDATNENMSGPAMDVDEARNFINARLDLLKRTLHPNPIVVTAQLLKAVWAAY | 36200
20 | DKRLENAQTLIPDGMKVRPMEDCITEAPTLIMARFNIVLLYLKTRVVLHRNYL | 62400
21 | CFICYGYIVIRWWIEADRDPELIHQALVMIWYPIAYFVEIFPQSMVRVLNMHA | 52600

Row | Sequence | transcriptional activation domain activity
22 | RTTSLGVWFLLIQFLWYGAFGVLYVWFFCQTFEYFNTLLVFDYILRFILCLMF | 51200
23 | LLIPTISFFFCATNCYVLTKDSQLDRGYIYWVLRCSAVHLMLSFFTLLFSLCF | 48100
24 | VYKRKILVLIYKIAHLTDLYLEVANGGPKLRLHLSALSFHTCAWKSKGLSIPE | 35900
25 | LYIVRLRFVHHFRINTAFVEACQLSIPPFVSVSLVSLAIAVFLNCVGHHFAAF | 39400
26 | CPYYPMICPSFLPLLLVLLFSLYLFLSSPLDFFLPLDFLIHTHNCTFLRTKGQ | 40000
27 | SHNTHTLSLSLPFPSYSSYSDLIFLFLFLLLFFFFLFLFLFLFLFLFLFSLPF | 34100
28 | AYSITLPICSSPILLLFIQSLLFLLPLFSITLSPSFSFILYLLHLFSLLLLCL | 30200
29 | ASQFPWAQIEITWRCLTYLCFDSFLELPQYWMLRQKFLVEHALLAYAARYCLV | 54100
30 | DSAMRAIYSFRNSYIAFILFNGSIYYYVARFFGFYHKVLDSPIVGFRWVDLHL | 58300
31 | DDEGSTRDRKSHKRRSRDKDDSDEEEDRKRRKRRKERERSKDKEERRSVLTGK | 28900
32 | MPTPSFFCFFLLFLSPMLNMRGDTFTAPLIFSFFVFFFFFFMLSLHFLLVFFS | 46400
33 | CIGAMVLIVLWAGGVCILVLVMCIPLEGVWDRRVNAKCIPHMTVMWYFNGVFN | 62900
34 | LLRRIMRYRNMHLLLSYAVELGFLRAIILCGRPSLSKVHHHVRFFLRDLLPAS | 38800
35 | IQNEDKFAESKNLSLDEFLKIFNGIYYERLRYDFNVVVIILLLTLFNHCKDFY | 52700
36 | LSNANHWKFIHIDEDGKLWRSNEFLLDLRLYNQDQVVIIYRFLHYVVKCCYES | 54300
37 | GAEYICQYKGGLIGKHFKSFAQIMPYLIYDLVPPSVLDAWTTIGSPVVLLWHT | 46000
38 | ADAGGKDKGEKVAGDAEGAPAEGKAEVKGEARAETAVEGAEQQSNGKKRKAAS | 34200
39 | MYLWVLLQKVGLLLLLLLLLLLLLLLLLLHWLLHLLLLLLLLLLLLYQVCLQW | 23400
40 | TPTAQYQQGYHFRHLRYVMCLSVAVLIVGAVSLTIPLPISARIASILRFWEHD | 44200
41 | MSSSEDEPRPRKARSKLSPPASPDSRAQSAPAVPSPVKLVRAKPRARAKAASL | 42700
42 | WSSYTGPILSPGFSDLDWAPDPSNTTSGNLFIDLWPTWLSWMPDSTVLFTPWG | 49900

Row | Sequence | transcriptional activation domain activity
43 | MLQVVVQCFGISLLYFRSGVYLCIFTVHGLGYLFCVFCVFGFHSVWVGLCFFV | 56600
44 | CFSILFSRFAGPSIYLGMRILIMLLYVTLTLWTPWLFYFWVSILSLCIAPFLF | 44300
45 | HRQTTLSVALPCGELHIAYLVAGLLFHGATCDDIVVIMLCARILFSVCKIYYH | 77100
46 | LCAEEYRWHWRAFLTGGGSAFWLLAYGLFFWASRLSLHSMSSAILYLGYLFLL | 77800
47 | SWRDPSYIYSKIGLCSTASLFLGLSFLNQPVSLQGVQNQIFSFFMLLVIQVFM | 60200
48 | KKAEKQEGEDKEKEEKPKPSRGKKRKESEEPNGASAEGEEEPVAKKAKPASKA | 49000
49 | MFYNFLFSLFSLFHMLLLHQSLVSLSYPFFLPGNFPLSVTIFIIAPLSLFWFI | 48900
50 | MAMGYMRFCALAISILLFREGKELTQRGSCGCLIYVCVRLEVGYYRLVFLIGY | 54700
51 | HHFVWERCLPDQMFVFAEDDIAHILNVTISSLELPMKTRQEIWVPSNVLFLCA | 54200
52 | SLVAATATAVEAEPPQPVKRPRGRPKKDATVASSPKPARATKAKAKAKAAVPP | 24700
53 | GEVTQKTRKGSTKHAQRATSGKASEKRRELSRKRKGRRKENARADDGTGEEEE | 17400
54 | KAAEKPAPAVSPSAPAAKAVHHNNNSNAKKQEQQQQQRAKSPAAASASAPAPA | 16600
55 | ADKKAKKAAPPPKPESSSSSDSSESDSDAPKAAATVKAAAAAVKKAGKKAVAS | 60900
56 | EKESVCYKLRLNRDSLSIMKDFLACKHEHDPSLIVLAHVLLYKVTATFVKAVS | 53500
57 | AEEEVEEEVKEEEEEEAKEEEDANESEPEPAPEPAKKGRGRKAAKAPTPVEDE | 39700
58 | IKPEIMGLLEIHRSIAQDIGVSLLTELINPNVSIGKMLRNCITVFTLINTLRH | 77500
59 | FPEMITILIFTWSHNPLPHLVWHNQQECGSSLSTRFLCIFAVILCIWFVKRVF | 59700
60 | SDASAGAEAGTDGSAAPPKKKPRQKRAAPLPGEEGYDAAASKPKRAPRKRKAS | 25300
61 | PCMLRLLIWIAFKLVPENSSIREPLNFLLDHPRRCYTLLFPSGPTWTLFAFLV | 60500
62 | MWLVVCIDGPVLSVLPRTILYLCVLLLLTLLASCSERSFAFARPLSSSCIFSY | 42600
63 | GGAAKPAFGAAPSGGLFGSTANTTANTGGFGGGFGSGTTAASTSSPFGGGAAS | 27700

Row | Sequence | transcriptional activation domain activity
64 | MLAKGVWLACMFFFFFFFRLSFLNGSWCEYFYYLLCFFNSSYFFSSLSLRISF | 48300
65 | EPRQTGDSRSQSSGNTGENEEDIAFASGLNGGTFDSMLEALPDDLYFTDFVSP | 88800
66 | YNVWILFRHLVDLILLNDFVAYSLFGFSWMQFSPNHSTFFHVLRWIGGWSLVG | 69200
67 | KGANQAVACAKLSRSRPQPSSSTSSSSTEAGANDAETHATAHVSMLGAVGDDS | 18700
68 | MCCLVLSLALLGRHGGMNIFFLCFYVGSFVFIFLRVLVVRLLLLLLLCYYQAL | 70200
69 | GGGGAGEEDAKGKARADEDVRESSRAKSTSKRKTSAAASGSESDSASSSSSYS | 14900
70 | HLIVSLSLSIFLFYLFWCLSIHVCVCLVSIYYILLLASLCFFLFFFNYLPILL | 50300
71 | RGGRRGRGERKREKEEKKRRKRKGKEKRATTEEGGRARRKEKKAVCGRRWSGG | 46100
72 | FLLSTSFYFVFILFLFHFYIVLFLLPPPSLSFPLSLPYLSAFIVLTPTQLWPA | 77600
73 | KIHLVNIAQVVVFFIYRLLYGLIPLFEIATCAYYPLLVSLWHLDYLLFYTVMF | 62800
74 | ERPFFALVVCGEYAHLSPETRVKVAQLLLRCLPAPNLSLLVYLLSFLSHFQHA | 62200
75 | SGGKTVLQGAFAGESGRISSGGPFGHGRGKEGQEQAIDNGRQRIARLAHGLRL | 23600
76 | SDNGTENNGETKKRYDPKDPLRPRRKKARRACYACQRAHLTCGDERPCQRCIK | 16400
77 | DGKTRRSKVRPRRGAPTGAAGSPAAAGSSKSDTEANSDKGAAGKKRKPRPARK | 37100
78 | MGLWARFICFVIVCFQIISLYCLFSCSLFFLYLQKTQPHFFLLSLFPSSFPPS | 62700
79 | MRLNICKDLWIHSAFRMLSDISAASLFLVSRSYFIIIFTVASLGYTRMLSLYH | 51900
80 | EEKAAGRSAASGGAEGEGKKRKAEGGEGAAGEEKKEKKKGRTYRQREPLAAGG | 54900
81 | VYCELVSFLVLSSKKSDTKLLIQLERVARYISQLLFVESDAITMTSGISVLRP | 37500
82 | PVVDLNSCFSNGFNNEKQEIEMETDDSPILLMSSSASRENSNTFSVIQRTPDG | 52900
83 | MGIIIVVCVFFLFDRFSFLSCFSSFSLELIRFFIFILLTFLSFCHSPFYLFFF | 60900
